The target in the experiment is Gab2a 12mer peptide (Homo sapiens, UniProt Q9UQC2). Put plainly: SPR. On the technique in general: Surface plasmon resonance follows binding to a sensor surface in real time, without labels.
Chain of Gab2a 12mer peptide (Q9UQC2 whole entry): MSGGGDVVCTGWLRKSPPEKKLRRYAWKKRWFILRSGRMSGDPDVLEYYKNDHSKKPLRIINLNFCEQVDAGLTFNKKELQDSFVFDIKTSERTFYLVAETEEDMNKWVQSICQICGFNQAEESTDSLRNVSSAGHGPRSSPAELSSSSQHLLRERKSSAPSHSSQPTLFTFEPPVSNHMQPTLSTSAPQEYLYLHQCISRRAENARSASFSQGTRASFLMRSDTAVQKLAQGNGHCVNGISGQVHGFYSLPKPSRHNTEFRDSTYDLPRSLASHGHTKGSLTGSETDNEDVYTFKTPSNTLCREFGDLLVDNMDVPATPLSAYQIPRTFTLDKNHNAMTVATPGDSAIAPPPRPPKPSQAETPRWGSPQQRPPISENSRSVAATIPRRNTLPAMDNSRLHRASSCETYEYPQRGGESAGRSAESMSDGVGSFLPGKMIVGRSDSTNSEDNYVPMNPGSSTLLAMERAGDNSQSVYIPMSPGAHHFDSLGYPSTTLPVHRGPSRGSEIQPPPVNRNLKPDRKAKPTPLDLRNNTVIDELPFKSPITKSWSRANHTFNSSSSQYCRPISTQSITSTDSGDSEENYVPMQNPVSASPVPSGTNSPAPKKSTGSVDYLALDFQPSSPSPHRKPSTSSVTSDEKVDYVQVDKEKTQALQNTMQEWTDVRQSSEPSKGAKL

B1: Grb2 SH3C (protein)
chain: QQPTYVQALFDFDPQEDGELGFRRGDFIHVMDNSDPNWWKGACHGQTGMFPRNYVTPVNR
B1 showed an equilibrium dissociation constant (Kd) of 161 µM.

What is called Kd is the concentration at which binding is half-saturated. Low readings indicate a tighter complex, high ones a looser complex.

Values taken from paper PMC12278339 (2025).
